# According to US20250235545A1, “POLYPEPTIDE CONJUGATE AND USE THEREOF” (SHANGHAI CHIXI BIOMEDICAL TECHNOLOGY CO., LTD, priority 2024, published 2025):
# Read-outs that look alike come from different tables or passages of the source. Where a SMILES comes first, the peptide text is derived from it. The star is where a group is joined. NEt(2-(20S-CPT-7-yl)ethyl) = CCN(CCc1c2c(nc3ccccc13)-c1cc3c(c(=O)n1C2)COC(=O)[C@]3(O)CC)*; X1 = CC[C@@]1(O)C(=O)OCc2c1cc1n(c2=O)Cc2c-1nc1ccccc1c2CCN(C1CCC1)*; X3 = CC[C@@]1(O)C(=O)OCc2c1cc1n(c2=O)Cc2c-1nc1ccccc1c2CCN(C1CC1)*; X7 = CC[C@@]1(O)C(=O)OCc2c1cc1n(c2=O)Cc2c-1nc1ccccc1c2CCN(C)*; Propanoyl(3-maleimido) = O=C1C=CC(=O)N1CCC(=O)*; PEG6 = NCCOCCOCCOCCOCCOCCOCCC(=O)O
# Assays:
# [1] = Tumor homogenate activation efficiency, breast cancer tissue (Examples 28, 37); assay type: in vitro ADME; conditions: pH 5.0, 37° C., 2 h; Table 5
# Method: (§1) Buffer preparation: 50 mM PH buffer (MES), 250 mM NaCl, pH adjusted to 5.0 with 0.5 M of sodium hydroxide.
# (§2) The polypeptide conjugate was prepared into a 1 mg/ml solution with pH 5.0 buffer, 100 μg of tumor tissue homogenate was added, (the tumor tissue homogenate was the homogenate of tumor tissues prepared with a Jingxin F6/10 handheld homogenizer), and the solution was placed at 37° C. for 2 h. The tumor tissue homogenate could effectively activate the polypeptide conjugate and release Belotecan, and the activation efficiencies of the drugs in tumor tissues were compared by high-performance liquid chromatography (HPLC) allowing determination of a decrease in the compounds and an increase in Belotecan:
# (§3) Release percentage=peak area of Belotecan/total peak area of Belotecan and all other Belotecan-containing compounds
# as §2, with “HPLC” for “high-performance liquid chromatography (HPLC)”, “Belotecan: […]” for “Belotecan:”
# [2] = MTD determination in mice (Examples 27, 36, 44); assay type: in vivo; conditions: female, mouse, in vivo; mice, monitored for 14 d; Table 4
# From the text: Test animals: 6-8 weeks old mice, all female; mice were grouped randomly, with six mice in each group, administered with drugs at different concentration gradients separately and monitored for 14 d. A mouse was euthanized at a loss of 20% of its initial weight and deemed to have died of poisoning.
# [3] = Tumor homogenate activation efficiency, ovarian cancer tissue (Examples 28, 37); assay type: in vitro ADME; conditions: pH 5.0, 37° C., 2 h; Table 5
# Method: as §1, §2, §3
# as §2, with “HPLC” for “high-performance liquid chromatography (HPLC)”, “Belotecan: […]” for “Belotecan:”
# [4] = system: colo320 colorectal cancer tumor model
# Method: Test objective: To investigate the antitumor efficacy of the above compounds in an animal tumor model of colo320 colorectal cancer.
# (§4) Test drug: Polypeptide conjugate, Irinotecan, Belotecan and normal saline control group.
# (§5) Test animals: 6-8 weeks old BALB/c mice, all female.
# (§6) Passaging was performed every three days, and cells within 15 generations were used. 7.5×10^6 corresponding cells were injected into right chests of nude mice subcutaneously. After a volume of the tumors reached at least 120 mm^3, the mice were grouped randomly, with three mice in each group. Then treatment was started, and the day when the treatment was started was the first day. […] The control group was administered with normal saline. Administration was performed once a week for four weeks.
# [5] = Tumor homogenate activation efficiency, non-small cell lung cancer tissue (Examples 28, 37); assay type: in vitro ADME; conditions: pH 5.0, 37° C., 2 h; Table 5
# Method: as §1, §2, §3
# as §2, with “HPLC” for “high-performance liquid chromatography (HPLC)”, “Belotecan: […]” for “Belotecan:”
# [6] = system: sarcoma SJSA-1 tumor model; conditions: Table 2
# Method: Test objective: To investigate the antitumor efficacy of the above compounds in an animal tumor model of sarcoma SJSA-1.
# as §4, §5
# as §6, with “SJSA-1 cells were purchased from ATCC and cultured in a DMEM medium containing 10% fetal bovine serum at 37° C. in 5% CO2. Passaging” for “Passaging”, “2×10^7” for “7.5×10^6”, “100” for “120”, “three” for “four”
# as §6, with “SJSA-1 cells were purchased from ATCC and cultured in a DMEM medium containing 10% fetal bovine serum at 37° C. in 5% CO2. Passaging” for “Passaging”, “2×10^7” for “7.5×10^6”, “100” for “120”, “three” for “four”
# [7] = Homogenate activation efficiency, heart tissue (Examples 28, 37); assay type: in vitro ADME; conditions: pH 5.0, 37° C., 2 h; Table 5
# [8] = Tumor homogenate activation efficiency, small cell lung cancer tissue (Example 28); assay type: in vitro ADME; conditions: pH 5.0, 37° C., 2 h; Table 5
# Method: as §1, §2, §3
# [9] = Tumor homogenate activation efficiency, sarcoma tissue (Examples 28, 37); assay type: in vitro ADME; conditions: pH 5.0, 37° C., 2 h; Table 5
# Method: as §1, §2, §3
# as §2, with “HPLC” for “high-performance liquid chromatography (HPLC)”, “Belotecan: […]” for “Belotecan:”
# [10] = system: A549 (non-small cell lung cancer); experiment: cells; assay type: cell-based; conditions: CCK8, 48 h; Table 1
# Method: (§7) Different types of cells were cultured with complete media (RPMI1640 (DMEM high sugar medium)+10% fetal bovine serum+1XP/S+sodium pyruvate 1 mM solution) in an incubator at 37° C. and 5% CO2 until the cells grew to a sufficient number, and the cells were collected, centrifuged at 1,000 g for 5 min, resuspended with an appropriate volume of a 10% RMPI1640 (DMEM high sugar medium) medium and counted. In a 96-well culture plate, 100 μL of cell culture fluid containing different concentrations of drugs was added, control wells (0.1% DMSO) with only corresponding drug solvents without drugs, as well as blank wells (Blank) with only the medium but without cells were set, and three parallel wells were set in each group. After that, the cells after cell counting were inoculated onto 96-well culture plates, with 100 μL of cell suspension per well, and an inoculation concentration of the cells was 5,000 cells (100 μL)/well. The plates were then cultured in a CO2 (5%) incubator at 37° C. for 48 h. After 48 h, 10 μL of a cell proliferation staining reagent (CCK8) was added to each well, the plates were incubated in a cell incubator for around 2 h, and an absorbance at 450 nm was detected.
# (§8) Cell survival rates and median inhibitory concentrations of the drugs on the cells were calculated.
# as §7, with “serum+1×P/S+sodium” for “serum+1XP/S+sodium”, “adjusted to an appropriate density.” for “counted.”
# (§9) Cell survival rates and median inhibitory concentrations (IC50) of the drugs on the cells were calculated.
# [11] = system: SKBR3 (breast cancer tissue); experiment: cells; assay type: cell-based; conditions: CCK8, 48 h; Table 1
# Method: as §7, §8
# as §7, with “serum+1×P/S+sodium” for “serum+1XP/S+sodium”, “adjusted to an appropriate density.” for “counted.”
# as §9
# [12] = system: SJSA-1 (sarcoma tissue); experiment: cells; assay type: cell-based; conditions: CCK8, 48 h; Table 1
# Method: as §7, §8
# as §7, with “serum+1×P/S+sodium” for “serum+1XP/S+sodium”, “adjusted to an appropriate density.” for “counted.”
# as §9
# [13] = system: A2780 (ovarian cancer); experiment: cells; assay type: cell-based; conditions: CCK8, 48 h; Table 1
# Method: as §7, §8
# as §7, with “serum+1×P/S+sodium” for “serum+1XP/S+sodium”, “adjusted to an appropriate density.” for “counted.”
# as §9
# [14] = 45 mg/kg once a week for four weeks, Table 3
# [15] = Table 14 (Example 43), dose 45 mg/kg, once a week for four weeks, BALB/c mice
# [16] = 45 mg/kg once a week for three weeks
# [17] = Table 13 (Example 42), dose 45 mg/kg, once a week for four weeks, BALB/c mice
# [18] = 15 mg/kg once a week for four weeks, Table 3
# [19] = 15 mg/kg once a week for three weeks
Structure (SMILES),Percentage of release efficiency (%) Breast cancer tissue (SKBR3) [1] [%],MTD at 14 d [2] [mg/kg],Percentage of release efficiency (%) Ovarian cancer tissue (A2780) [3] [%],"Mouse weight (%) [4, 14]","colo320 (colorectal cancer cell) growth rate (%) [4, 14] [%]","colo320 (colorectal cancer cell) mean tumor volume (mm^3) [4, 14] [mm^3]",Percentage of release efficiency (%) Non-small cell lung cancer tissue (A549) [5] [%],"Mouse weight (%) [6, 16]",Percentage of release efficiency (%) Heart tissue [7] [%],Percentage of release efficiency (%) Small cell lung cancer tissue (NCI-H841) [8] [%],Percentage of release efficiency (%) Sarcoma tissue (SJSA1) [9] [%],IC50 A549 (non-small cell lung cancer) [10] [µg/mL],IC50 SKBR3 (breast cancer tissue) [11] [µg/mL],IC50 SJSA-1 (sarcoma tissue) [12] [µg/mL],IC50 A2780 (ovarian cancer) [13] [µg/mL],"Mouse weight (%) [4, 18]","Mouse weight (%) [6, 19]",other results
CCN(CCc1c2c(nc3ccccc13)-c1cc3c(c(=O)n1C2)COC(=O)[C@]3(O)CC)C(=O)CNC(=O)[C@H](CC(N)=O)NC(=O)[C@H](C)NC(=O)CNC(=O)CCOCCOCCOCCOCCOCCOCCNC(=O)CCN1C(=O)C=CC1=O [MI-6PEG-GANG-D2] ({Propanoyl(3-maleimido)-PEG6}-GANG-{NEt(2-(20S-CPT-7-yl)ethyl)}),68.8,200,69.9,+39%,450.72,499.2,65.9,+18%,1.7,63.1,88.4,–,–,–,–,–,–,"Mouse weight (%) [4, 15]: +39%; colo320 (colorectal cancer cell) growth rate (%) [4, 15]: 450.72%; colo320 (colorectal cancer cell) mean tumor volume (mm^3) [4, 15]: 499.2 mm^3; SJSA-1 (sarcoma tissue) mean tumor volume (mm^3) [6, 16]: 1065.2 mm^3; SJSA-1 (sarcoma) Growth rate (%) [6, 16]: 918.28%"
CC[C@@]1(O)C(=O)OCc2c1cc1n(c2=O)Cc2c-1nc1ccccc1c2CCN(C)C(=O)CNC(=O)[C@H](Cc1ccccc1)NC(=O)CNC(=O)CNC(=O)CCOCCOCCOCCOCCOCCOCCNC(=O)CCN1C(=O)C=CC1=O [MI-6PEG-GGFG-D1] ({Propanoyl(3-maleimido)-PEG6}-GGFG-X7),74.8,250,67.2,+19%,605.35,671.3,71.7,–,1.7,66.3,81.5,10.78,16.49,11.79,6.84,–,–,"Mouse weight (%) [4, 17]: +19%; colo320 (colorectal cancer cell) growth rate (%) [4, 17]: 605.35%; colo320 (colorectal cancer cell) mean tumor volume (mm^3) [4, 17]: 671.3 mm^3"
CC[C@@]1(O)C(=O)OCc2c1cc1n(c2=O)Cc2c-1nc1ccccc1c2CCN(C(=O)CNC(=O)[C@H](Cc1ccccc1)NC(=O)CNC(=O)CNC(=O)CCOCCOCCOCCOCCOCCOCCNC(=O)CCN1C(=O)C=CC1=O)C1CC1 [MI-6PEG-GGFG-D6] ({Propanoyl(3-maleimido)-PEG6}-GGFG-X3),67.1,–,66.3,+19%,–,–,83.7,+2%,2.4,72.1,80.7,1.31,2.30,0.73,1.19,+29%,+28%,–
CC[C@@]1(O)C(=O)OCc2c1cc1n(c2=O)Cc2c-1nc1ccccc1c2CCN(C(=O)CNC(=O)[C@H](Cc1ccccc1)NC(=O)CNC(=O)CNC(=O)CCOCCOCCOCCOCCOCCOCCNC(=O)CCN1C(=O)C=CC1=O)C1CCC1 [MI-6PEG-GGFG-D7] ({Propanoyl(3-maleimido)-PEG6}-GGFG-X1),72.7,–,73.6,+20%,–,–,75.2,+27%,2.9,76.4,69.7,1.32,2.40,1.28,1.68,+28%,+24%,–
